Source: patent publication US11220526B2, “Neuropeptide S receptor (NPSR) agonists” (Research Triangle Institute, priority 2016, dated 2022)
Square brackets hold non-standard residues; d marks the D form. Peptide text beside a SMILES is read from it. * marks the point of attachment. Phe(4-Cl) = N[C@@H](Cc1ccc(Cl)cc1)C(=O)O; Lys(Me2) = CN(C)CCCC[C@H](N)C(=O)O; Bz = O=C(c1ccccc1)*

What was measured:
[1] = target: T1, NPSR-C-Alt (Homo sapiens, UniProt Q6W5P4); details: functional assay; cited from earlier work
T1 sequence (Q6W5P4 1-377 isoform Q6W5P4-4): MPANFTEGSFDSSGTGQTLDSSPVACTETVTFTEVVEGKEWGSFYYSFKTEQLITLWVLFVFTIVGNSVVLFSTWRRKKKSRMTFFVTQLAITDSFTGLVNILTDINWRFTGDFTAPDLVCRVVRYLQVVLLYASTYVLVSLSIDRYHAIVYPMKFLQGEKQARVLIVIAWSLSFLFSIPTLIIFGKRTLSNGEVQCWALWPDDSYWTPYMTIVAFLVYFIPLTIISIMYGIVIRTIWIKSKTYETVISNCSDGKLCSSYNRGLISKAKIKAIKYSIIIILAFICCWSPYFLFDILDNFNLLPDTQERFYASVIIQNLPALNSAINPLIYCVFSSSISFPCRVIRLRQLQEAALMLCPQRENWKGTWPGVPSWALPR

[2] = NPS administration; cited from earlier work
[3] = test system: C57BL/6 mice; test: Locomotor activity (horizontal, vertical, stereotypic) after i.c.v. injection; type: in vivo
Method: Male C57BL/6 mice (National Cancer Institute, Bethesda, Md., or Charles River Laboratories, Wilmington, Mass.), age 8-12 weeks, were group-housed (4 animals per cage) under controlled conditions (temperature 21 f 2° C.; relative humidity 50-60%; 12-hour light-dark cycle, lights on 6:00 AM) with free access to food and water. For intracerebroventricular (i.c.v.) drug injections, mice were briefly anesthetized with isofluorane. NPS was dissolved in phosphate-buffered saline (PBS, pH 7.4) containing 0.1% bovine serum albumin and injected i.c.v. (total volume: 2 μl) as described before (Xu et al., 2004). NPSR antagonist compounds were dissolved in PBS containing 10% Cremophor EL (Sigma) and 100 μl were injected intraperitoneally (i.p.).
Locomotion of mice was monitored in an automated activity system equipped with infrared sensors for both horizontal and vertical activity measurements (Versamax, Accuscan Inc., Columbus, Ohio). Male C57BL/6 mice were allowed to habituate to the recording chamber for 1 h. Vehicle or NPSR antagonist compound (in PBS, 10% cremophor EL) were injected i.p. 10 minutes before central administration of either NPS (1 nmole in 2 μl PBS, 0.1% BSA) or vehicle (PBS, 0.1% BSA). […] Horizontal activity represents infrared beam breaks in the X and Y dimension, while vertical activity was recorded by infrared sensors located 8 cm above the chamber floor (Z dimension). […]

[4] = target: T2, NPSR (Homo sapiens, UniProt Q6W5P4); details: Bernier et al. 2006; cited from earlier work
T2 sequence (Q6W5P4 1-371): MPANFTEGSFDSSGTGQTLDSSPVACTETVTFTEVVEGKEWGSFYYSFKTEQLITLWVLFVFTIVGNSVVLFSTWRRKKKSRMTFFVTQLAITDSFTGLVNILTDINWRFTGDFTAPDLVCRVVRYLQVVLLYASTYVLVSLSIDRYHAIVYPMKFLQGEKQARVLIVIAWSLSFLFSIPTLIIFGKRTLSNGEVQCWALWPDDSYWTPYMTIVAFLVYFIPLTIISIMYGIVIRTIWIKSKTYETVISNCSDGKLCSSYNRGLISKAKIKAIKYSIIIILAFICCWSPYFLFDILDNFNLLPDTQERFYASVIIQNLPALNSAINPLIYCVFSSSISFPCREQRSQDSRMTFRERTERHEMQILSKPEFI

Molecule | effect of truncation on NPSR activation [4] | other results
SFRNGVGTGMKKTSFQRAKS [hNPS, 20 residue peptide, endogenous ligand of the neuropeptide S receptor] | – | potency at NPSR-C-Alt versus the 107I variant [1]: 30 fold lower; performance in novel recognitions assays [2]: dose-dependently improved performance
O=C(NCCN1CCCCC1)N1CCN2C(=O)OC(c3ccccc3)(c3ccccc3)C2C1 (centres unmarked) [RTI-11817-163] | – | effect on R06039-398 mediated increases in horizontal and vertical activity ([3]; antagonist added to icv R06039-398, mice): reverses
peptide 4-20: NPS with the first three NH2-terminal residues removed (NGVGTGMKKTSFQRAKS; Neuropeptide S; UniProt P0C0P6 73-89, looked up, fragment) | largely inactive | –
peptide 1-6: NPS with the C-terminal 14 residues removed (SFRNGV; Neuropeptide S; UniProt P0C0P6 70-75, looked up, fragment) | limited effect on the potency | –
CN(C)CCCC[C@H](NC(=O)[C@H](Cc1ccc(Cl)cc1)NC(=O)c1ccccc1)C(=O)N[C@@H](CC(N)=O)C(N)=O [Example R06039-398] (Bz-[Phe(4-Cl)]-[Lys(Me2)]-Asn-NH2) | – | cumulative activities (horizontal, vertical, stereotypic) measured ([3]; icv administration, male C57BL/6 mice, 90 minutes recording): increasing with dose
peptide 3-20: NPS with the first two NH2-terminal residues removed (RNGVGTGMKKTSFQRAKS; Neuropeptide S; UniProt P0C0P6 72-89, looked up, fragment) | largely inactive | –
peptide 2-20: NPS with Ser-1 removed (FRNGVGTGMKKTSFQRAKS; Neuropeptide S; UniProt P0C0P6 71-89, looked up, fragment) | detrimental to function | –
